According to paper PMC2797370:

B1: prostaglandin endoperoxide synthase-1 (PGHS-1) (Ovis aries) (protein)
chain: ADPGAPAPVNPCCYYPCQHQGICVRFGLDRYQCDCTRTGYSGPNCTIPEIWTWLRTTLRPSPSFIHFLLTHGRWLWDFVNATFIRDTLMRLVLTVRSNLIPSPPTYNIAHDYISWESFSNVSYYTRILPSVPRDCPTPMDTKGKKQLPDAEFLSRRFLLRRKFIPDPQSTNLMFAFFAQHFTHQFFKTSGKMGPGFTKALGHGVDLGHIYGDNLERQYQLRLFKDGKLKYQMLNGEVYPPSVEEAPVLMHYPRGIPPQSQMAVGQEVFGLLPGLMLYATIWLREHNRVCDLLKAEHPTWGDEQLFQTARLILIGETIKIVIEEYVQQLSGYFLQLKFDPELLFGAQFQYRNRIAMEFNQLYHWHPLMPDSFRVGPQDYSYEQFLFNTSMLVDYGVEALVDAFSRQPAGRIGGGRNIDHHILHVAVDVIKESRVLRLQPFNEYRKRFGMKPYTSFQELTGEKEMAAELEELYGDIDALEFYPGLLLEKCHPNSIFGESMIEMGAPFSLKGLLGNPICSPEYWKASTFGGEVGFNLVKTATLKKLVCLNTKTCPYVSFHVPDPRQEDRPGVERPPTEL
B2: prostaglandin endoperoxide synthase-2 (PGHS-2) (Mus musculus) (protein)
chain: ANPCCSNPCQNRGECMSTGFDQYKCDCTRTGFYGENCTTPEFLTRIKLLLKPTPNTVHYILTHFKGVWNIVNNIPFLRSLIMKYVLTSRSYLIDSPPTYNVHYGYKSWEAFSNLSYYTRALPPVADDCPTPMGVKGNKELPDSKEVLEKVLLRREFIPDPQGSNMMFAFFAQHFTHQFFKTDHKRGPGFTRGLGHGVDLNHIYGETLDRQHKLRLFKDGKLKYQVIGGEVYPPTVKDTQVEMIYPPHIPENLQFAVGQEVFGLVPGLMMYATIWLREHNRVCDILKQEHPEWGDEQLFQTSRLILIGETIKIVIEDYVQHLSGYHFKLKFDPELLFNQQFQYQNRIASEFNTLYHWHPLLPDTFNIEDQEYSFKQFLYNNSILLEHGLTQFVESFTRQIAGRVAGGRNVPIAVQAVAKASIDQSREMKYQSLNEYRKRFSLKPYTSFEELTGEKEMAAELKALYSDIDVMELYPALLVEKPRPDAIFGETMVELGAPFSLKGLMGNPICSPQYWKPSTFGGEVGFKIINTASIQSLICNNVKGCPFTSFNVQDPQPTKTATINASASHSRLDDINPTVLIKRRSTEL

What was measured:
[1] = substrate: CCCCC/C=C\C/C=C\C/C=C\C/C=C\CCCC(=O)Nc1cccc(O)c1; assay: purified protein; conditions: heme
[2] = substrate: CCCCC/C=C\C/C=C\C/C=C\C/C=C\CCCC(=O)O; assay: purified protein; conditions: heme

Protein | Km [1] [µM] | kcat [1] [s⁻¹] | kcat/Km [1] [M⁻¹ s⁻¹] | Km [2] [µM] | kcat [2] [s⁻¹] | kcat/Km [2] [M⁻¹ s⁻¹]
B1 | 15 ± 1 | 22 ± 1 | 1.5e+06 ± 1e+06 | 3.4 ± 0.6 |  | 
B2 |  |  |  | 2.5 ± 0.4 | 47 | 1.9e+07
